B1: Protein PIGBOS1 (Homo sapiens), A0A0B4J2F0 (parent)
chain: MFRRLTFAQLLFATVLGIAGGVYIFQPVFEQYAKDQKELKEKMQLVQESEEKKS
partner: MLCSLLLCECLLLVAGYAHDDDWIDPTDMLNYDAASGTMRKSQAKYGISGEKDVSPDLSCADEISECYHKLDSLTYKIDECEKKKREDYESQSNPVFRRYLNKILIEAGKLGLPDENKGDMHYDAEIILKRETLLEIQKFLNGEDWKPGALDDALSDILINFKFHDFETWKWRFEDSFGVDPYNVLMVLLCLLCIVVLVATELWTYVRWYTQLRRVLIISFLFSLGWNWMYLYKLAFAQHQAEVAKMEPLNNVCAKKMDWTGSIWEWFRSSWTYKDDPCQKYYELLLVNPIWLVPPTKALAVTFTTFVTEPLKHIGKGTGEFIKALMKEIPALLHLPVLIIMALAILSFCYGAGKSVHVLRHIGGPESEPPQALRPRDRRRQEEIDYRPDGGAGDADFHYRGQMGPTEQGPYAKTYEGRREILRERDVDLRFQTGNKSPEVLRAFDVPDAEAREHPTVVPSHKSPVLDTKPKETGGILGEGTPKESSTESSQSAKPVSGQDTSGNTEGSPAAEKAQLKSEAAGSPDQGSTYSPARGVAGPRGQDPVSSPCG

Variants of: B1
Conditions: with clcc1_human CLCC1, Q96S66

Variant | effect of a mutation on the interaction
S49A;E50A;E51A | with no effect
K40A;E41A;K42A | with no effect
K52A;K53A;S54A | with no effect
K37A;E38A;L39A | with no effect
E30A;Q31A;Y32A | disrupting interaction strength
K34A;D35A;Q36A | decreasing interaction strength
M43A;Q44A;L45A | with no effect
V46A;Q47A;E48A | with no effect

Reference: IntAct's records for PubMed 31653868
